# Assay results taken from the supplement of paper PMC9112550, “Optimization of the antimicrobial peptide Bac7 by deep mutational scanning” (BMC Biology, 2022).
# System: Escherichia coli TOP10
# Assay: shrunken log2 fold change of peptide-encoding DNA abundance (4.5 h post-induction vs induction); higher = less antimicrobial activity (less host growth inhibition)
# Conditions: time post-induction: 4.5 h; library: site-saturation at positions 5, 18, 19, 20
# 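Further: peptides expressed intracellularly from a pBAD plasmid library in pooled LB shake-flask culture, induced with 0.3% L-arabinose, DNA abundance read by NGS, three biological replicates, DESeq2 with apeglm shrinkage.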
row,Sequence,shrunken log2 fold change
1,RRIRKRPPRLPRPRPRPGRSPRP,0.256
2,RRIRRRPPRLPRPRPRPGINPRP,0.016
3,RRIRQRPPRLPRPRPRPVNYPRP,-0.00127
4,RRIRFRPPRLPRPRPRPTTNPRP,-0.2
5,RRIRLRPPRLPRPRPRPQMTPRP,-0.0928
6,RRIRLRPPRLPRPRPRPLKTPRP,-0.0135
7,RRIRWRPPRLPRPRPRPLTIPRP,-0.162
8,RRIRMRPPRLPRPRPRPIIEPRP,-0.0631
9,RRIRMRPPRLPRPRPRPTYLPRP,-0.497
10,RRIRVRPPRLPRPRPRPMCKPRP,-0.508
11,RRIRWRPPRLPRPRPRPCVAPRP,0.321
12,RRIRSRPPRLPRPRPRPMLKPRP,-0.0793
13,RRIRERPPRLPRPRPRPFSGPRP,-0.55
14,RRIRHRPPRLPRPRPRPIMQPRP,-0.228
15,RRIRCRPPRLPRPRPRPTDLPRP,0.0853
16,RRIRWRPPRLPRPRPRPTCMPRP,0.553
17,RRIRSRPPRLPRPRPRPIIDPRP,-0.178
18,RRIRCRPPRLPRPRPRPYYIPRP,-0.564
19,RRIRPRPPRLPRPRPRPKHGPRP,0.127
20,RRIRCRPPRLPRPRPRPTYSPRP,-1.01
21,RRIRKRPPRLPRPRPRPDMNPRP,0.375
22,RRIRFRPPRLPRPRPRPFDTPRP,-0.486
23,RRIRLRPPRLPRPRPRPEAGPRP,0.375
24,RRIRGRPPRLPRPRPRPHLHPRP,0.227
25,RRIRERPPRLPRPRPRPTRNPRP,0.22

row,Sequence,shrunken log2 fold change
1,RRIRFRPPRLPRPRPRPMSIPRP,-0.354
2,RRIRIRPPRLPRPRPRPYMVPRP,-0.377
3,RRIRGRPPRLPRPRPRPCPQPRP,0.654
4,RRIRSRPPRLPRPRPRPPYGPRP,-0.401
5,RRIRYRPPRLPRPRPRPQPPPRP,0.163
6,RRIRRRPPRLPRPRPRPYPRPRP,0.207
7,RRIRARPPRLPRPRPRPKMIPRP,-0.0208
8,RRIRGRPPRLPRPRPRPCRFPRP,0.116
9,RRIRIRPPRLPRPRPRPIKQPRP,0.00391
10,RRIRYRPPRLPRPRPRPTSFPRP,-0.255
11,RRIRPRPPRLPRPRPRPYMIPRP,-0.398
12,RRIRHRPPRLPRPRPRPNFWPRP,0.257
13,RRIRRRPPRLPRPRPRPLDQPRP,-0.0226
14,RRIRHRPPRLPRPRPRPEHTPRP,-0.328
15,RRIRERPPRLPRPRPRPMWWPRP,-0.298
16,RRIRRRPPRLPRPRPRPFEGPRP,0.0216
17,RRIRRRPPRLPRPRPRPWNMPRP,-0.479
18,RRIRDRPPRLPRPRPRPNMDPRP,-0.491
19,RRIRDRPPRLPRPRPRPGRWPRP,0.797
20,RRIRERPPRLPRPRPRPGAAPRP,1.82
21,RRIRGRPPRLPRPRPRPRDHPRP,0.978
22,RRIRRRPPRLPRPRPRPGTHPRP,0.243
23,RRIRPRPPRLPRPRPRPICTPRP,0.0424
24,RRIRQRPPRLPRPRPRPVCKPRP,0.0434
25,RRIRWRPPRLPRPRPRPFALPRP,-0.129

row,Sequence,shrunken log2 fold change
1,RRIRARPPRLPRPRPRPIEWPRP,0.638
2,RRIRYRPPRLPRPRPRPPNKPRP,-0.585
3,RRIRGRPPRLPRPRPRPYFRPRP,0.0786
4,RRIRKRPPRLPRPRPRPSPIPRP,0.0333
5,RRIRMRPPRLPRPRPRPLVFPRP,0.102
6,RRIRMRPPRLPRPRPRPSMPPRP,-0.201
7,RRIRPRPPRLPRPRPRPNWEPRP,0.0541
8,RRIRRRPPRLPRPRPRPGDWPRP,0.465
9,RRIRTRPPRLPRPRPRPTNEPRP,-0.261
10,RRIRCRPPRLPRPRPRPPSRPRP,0.558
11,RRIRKRPPRLPRPRPRPDCVPRP,0.342
12,RRIRFRPPRLPRPRPRPNWRPRP,-0.0764
13,RRIRMRPPRLPRPRPRPTCIPRP,-0.00872
14,RRIRMRPPRLPRPRPRPTWSPRP,0.66
15,RRIRKRPPRLPRPRPRPDAEPRP,1.59
16,RRIRSRPPRLPRPRPRPRKHPRP,0.0783
17,RRIRIRPPRLPRPRPRPLVFPRP,-0.348
18,RRIRNRPPRLPRPRPRPRVGPRP,0.0576
19,RRIRIRPPRLPRPRPRPSYVPRP,-1.22
20,RRIRMRPPRLPRPRPRPNAIPRP,0.0397
21,RRIRNRPPRLPRPRPRPLMFPRP,-0.947
22,RRIRQRPPRLPRPRPRPPYMPRP,-0.184
23,RRIRGRPPRLPRPRPRPYRHPRP,0.161
24,RRIRARPPRLPRPRPRPIGHPRP,0.0734
25,RRIRERPPRLPRPRPRPRYSPRP,-0.182

row,Sequence,shrunken log2 fold change
1,RRIRLRPPRLPRPRPRPAKGPRP,-0.00764
2,RRIRQRPPRLPRPRPRPIWLPRP,0.66
3,RRIRGRPPRLPRPRPRPYLTPRP,-0.0518
4,RRIRVRPPRLPRPRPRPQTLPRP,-0.372
5,RRIRSRPPRLPRPRPRPEWPPRP,0.112
6,RRIRWRPPRLPRPRPRPFPYPRP,-0.44
7,RRIRIRPPRLPRPRPRPYIGPRP,-0.775
8,RRIRKRPPRLPRPRPRPVKFPRP,0.048
9,RRIRTRPPRLPRPRPRPFSNPRP,-0.405
10,RRIRERPPRLPRPRPRPYHQPRP,-0.416
11,RRIRIRPPRLPRPRPRPQHCPRP,-0.248
12,RRIRVRPPRLPRPRPRPVHHPRP,-0.199
13,RRIRFRPPRLPRPRPRPDYIPRP,0.209
14,RRIRFRPPRLPRPRPRPGHIPRP,-0.00306
15,RRIRWRPPRLPRPRPRPARHPRP,0.31
16,RRIRDRPPRLPRPRPRPWIAPRP,-0.117
17,RRIRLRPPRLPRPRPRPRNKPRP,-0.156
18,RRIRVRPPRLPRPRPRPGSCPRP,0.216
19,RRIRMRPPRLPRPRPRPRMGPRP,1.11
20,RRIRPRPPRLPRPRPRPVCCPRP,0.122
21,RRIRYRPPRLPRPRPRPLRVPRP,-0.0922
22,RRIRQRPPRLPRPRPRPYWYPRP,-0.0759
23,RRIRCRPPRLPRPRPRPKETPRP,-0.0766
24,RRIRIRPPRLPRPRPRPYTPPRP,-0.825
25,RRIRRRPPRLPRPRPRPTQYPRP,0.571

row,Sequence,shrunken log2 fold change
1,RRIRLRPPRLPRPRPRPHEMPRP,-0.377
2,RRIRHRPPRLPRPRPRPMFVPRP,0.0711
3,RRIRYRPPRLPRPRPRPITIPRP,-0.149
4,RRIRVRPPRLPRPRPRPRERPRP,0.578
5,RRIRKRPPRLPRPRPRPEDEPRP,2.15
6,RRIRTRPPRLPRPRPRPELWPRP,-0.142
7,RRIRKRPPRLPRPRPRPGWGPRP,0.432
8,RRIRNRPPRLPRPRPRPNQIPRP,-0.319
9,RRIRARPPRLPRPRPRPASVPRP,0.261
10,RRIRDRPPRLPRPRPRPIRPPRP,-0.0136
11,RRIRYRPPRLPRPRPRPLEWPRP,0.00157
12,RRIRHRPPRLPRPRPRPKLNPRP,-0.248
13,RRIRTRPPRLPRPRPRPNEQPRP,-0.0135
14,RRIRCRPPRLPRPRPRPAHVPRP,0.019
15,RRIRTRPPRLPRPRPRPMSEPRP,-0.00136
16,RRIRNRPPRLPRPRPRPIARPRP,-0.0163
17,RRIRKRPPRLPRPRPRPWMAPRP,0.102
18,RRIRDRPPRLPRPRPRPYHHPRP,-0.0229
19,RRIRTRPPRLPRPRPRPCQHPRP,0.0626
20,RRIRQRPPRLPRPRPRPTSRPRP,-0.0729
21,RRIRSRPPRLPRPRPRPSGHPRP,-0.433
22,RRIRKRPPRLPRPRPRPPVLPRP,-0.0742
23,RRIRPRPPRLPRPRPRPIWCPRP,0.0267
24,RRIRWRPPRLPRPRPRPEAAPRP,1.76
25,RRIRMRPPRLPRPRPRPVHQPRP,-0.112

row,Sequence,shrunken log2 fold change
1,RRIRRRPPRLPRPRPRPYILPRP,0.366
2,RRIRRRPPRLPRPRPRPCSDPRP,0.00368
3,RRIRLRPPRLPRPRPRPRYSPRP,-0.087
4,RRIRCRPPRLPRPRPRPFWCPRP,-0.397
5,RRIRPRPPRLPRPRPRPNYPPRP,-0.392
6,RRIRARPPRLPRPRPRPDDSPRP,0.124
7,RRIRTRPPRLPRPRPRPLYGPRP,0.0411
8,RRIRIRPPRLPRPRPRPLQIPRP,-0.165
9,RRIRMRPPRLPRPRPRPVDVPRP,-0.163
10,RRIRPRPPRLPRPRPRPPEPPRP,0.787
11,RRIRARPPRLPRPRPRPFDQPRP,0.249
12,RRIRERPPRLPRPRPRPCWVPRP,-0.26
13,RRIRARPPRLPRPRPRPEGEPRP,1.39
14,RRIRARPPRLPRPRPRPPDAPRP,1.25
15,RRIRMRPPRLPRPRPRPANWPRP,2.4
16,RRIRGRPPRLPRPRPRPEIYPRP,0.26
17,RRIRFRPPRLPRPRPRPLHYPRP,-0.299
18,RRIRSRPPRLPRPRPRPFKEPRP,-0.117
19,RRIRERPPRLPRPRPRPGYKPRP,-0.11
20,RRIRLRPPRLPRPRPRPISCPRP,-0.0691
21,RRIRWRPPRLPRPRPRPAKTPRP,0.0165
22,RRIRCRPPRLPRPRPRPAPVPRP,0.56
23,RRIRYRPPRLPRPRPRPKNMPRP,-0.477
24,RRIRIRPPRLPRPRPRPNAIPRP,-0.204
25,RRIRDRPPRLPRPRPRPVELPRP,-0.0194
